{
  "source": "IntAct's records for PubMed 11932251",
  "parents": {"B1": {"name": "Regulator of chromosome condensation (Homo sapiens), P18754 (parent)", "chain": "MSPKRIAKRRSPPADAIPKSKKVKVSHRSHSTEPGLVLTLGQGDVGQLGLGENVMERKKPALVSIPEDVVQAEAGGMHTVCLSKSGQVYSFGCNDEGALGRDTSVEGSEMVPGKVELQEKVVQVSAGDSHTAALTDDGRVFLWGSFRDNNGVIGLLEPMKKSMVPVQVQLDVPVVKVASGNDHLVMLTADGDLYTLGCGEQGQLGRVPELFANRGGRQGLERLLVPKCVMLKSRGSRGHVRFQDAFCGAYFTFAISHEGHVYGFGLSNYHQLGTPGTESCFIPQNLTSFKNSTKSWVGFSGGQHHTVCMDSEGKAYSLGRAEYGRLGLGEGAEEKSIPTLISRLPAVSSVACGASVGYAVTKDGRVFAWGMGTNYQLGTGQDEDAWSPVEMMGKQLENRVVLSVSSGGQHTVLLVKDKEQS", "partner": "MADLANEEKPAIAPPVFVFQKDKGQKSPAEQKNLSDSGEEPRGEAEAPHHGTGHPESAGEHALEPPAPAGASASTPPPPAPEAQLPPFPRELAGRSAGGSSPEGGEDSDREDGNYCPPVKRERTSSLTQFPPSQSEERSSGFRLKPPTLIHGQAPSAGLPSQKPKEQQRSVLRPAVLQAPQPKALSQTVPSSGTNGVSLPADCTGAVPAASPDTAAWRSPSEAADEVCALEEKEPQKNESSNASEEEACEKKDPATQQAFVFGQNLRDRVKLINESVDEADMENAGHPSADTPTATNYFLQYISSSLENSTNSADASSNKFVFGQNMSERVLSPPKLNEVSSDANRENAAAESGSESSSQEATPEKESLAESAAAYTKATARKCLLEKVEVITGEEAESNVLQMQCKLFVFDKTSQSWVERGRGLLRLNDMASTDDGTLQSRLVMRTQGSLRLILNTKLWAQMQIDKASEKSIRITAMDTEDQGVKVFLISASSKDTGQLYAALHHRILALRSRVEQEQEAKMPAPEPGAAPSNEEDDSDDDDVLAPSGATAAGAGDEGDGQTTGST"}},
  "data": [
    {"variants_of": "B1", "conditions": "with ranb3_human RANBP3, Q9H6Z4", "values": [
      {"variant": "D182A", "effect of a mutation on the interaction": "disrupting interaction"}
    ]}
  ]
}
